Reference: paper doi:10.1101/2020.09.24.311712, “Surface condensation of a pioneer transcription factor on DNA”

How the values were obtained:
MBP-Klf4-GFP = MBP-Klf4-GFP (Homo sapiens, UniProt O43474 1-513); assay: EMSA; poly-d(IC) 37.5 ng; Kd value not in material; EMSA: 25 mM Tris pH 7.4, 125 mM KCl, 6% glycerol, 1 mM DTT, 0.1 mg/ml BSA, 7.5 nM Cy5-dsDNA, 37.5 ng poly-d(IC), 20 min at 4 °C; settings: protein: recombinant, tags: N-terminal MBP (3C-cleavable), label: Cy5 at 3' end of strand 1 (so in the source), blunt
Chain of MBP-Klf4-GFP (O43474 whole entry): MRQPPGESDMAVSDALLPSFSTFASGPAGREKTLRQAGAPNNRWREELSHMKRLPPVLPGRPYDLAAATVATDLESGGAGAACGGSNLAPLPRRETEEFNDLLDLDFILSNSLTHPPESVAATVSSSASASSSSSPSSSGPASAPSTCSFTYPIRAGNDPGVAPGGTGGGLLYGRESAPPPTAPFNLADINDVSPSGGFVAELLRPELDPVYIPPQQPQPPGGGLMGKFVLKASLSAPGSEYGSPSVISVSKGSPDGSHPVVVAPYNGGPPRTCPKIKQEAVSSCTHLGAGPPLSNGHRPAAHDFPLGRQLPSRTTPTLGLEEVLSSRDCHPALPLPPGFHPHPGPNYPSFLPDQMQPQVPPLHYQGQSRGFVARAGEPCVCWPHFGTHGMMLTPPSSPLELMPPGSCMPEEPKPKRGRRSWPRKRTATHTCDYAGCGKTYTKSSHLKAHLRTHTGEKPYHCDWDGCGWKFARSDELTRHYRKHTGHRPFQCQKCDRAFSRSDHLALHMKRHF

Klf4-GFP = Klf4-GFP (Homo sapiens, UniProt O43474 1-513); assay: EMSA; poly-d(IC) 37.5 ng; Kd plotted in ED Fig. 2c but value not in material; EMSA: 25 mM Tris pH 7.4, 125 mM KCl, 6% glycerol, 1 mM DTT, 0.1 mg/ml BSA, 7.5 nM Cy5-dsDNA, 37.5 ng poly-d(IC), 20 min at 4 °C; settings: protein: recombinant; tags: C-terminal GFP; MBP removed with 3C protease; label: Cy5 at 3' end of strand 1 (so in the source); blunt
Chain of Klf4-GFP (O43474 whole entry): as above

B1: Klf4 specific dsDNA EMSA (dsDNA)
DNA 1: GGAGGGGTGTGGGGCTG
DNA 2: CAGCCCCACACCCCTCC
- binding result (MBP-Klf4-GFP): binds
- binding result (Klf4-GFP): binds
